{"source": "patent US20040248081", "about": "“LANA viral protein binding sites” (THE REGENTS OF THE UNIVERSITY OF MICHIGAN, published 2004)", "binders": {"B1": {"name": "TLBR4 (dsDNA)", "DNA 1": "TCCCGCCCGGGCATGGG", "DNA 2": "CCCATGCCCGGGCGGGA"}}, "key": {"[1]": {"target": "LANA 9-11 (last 237 aa) (Kaposi's sarcoma-associated herpesvirus, UniProt Q9QR71 SEQ:926-1162)", "sequence (Q9QR71 893-1129)": "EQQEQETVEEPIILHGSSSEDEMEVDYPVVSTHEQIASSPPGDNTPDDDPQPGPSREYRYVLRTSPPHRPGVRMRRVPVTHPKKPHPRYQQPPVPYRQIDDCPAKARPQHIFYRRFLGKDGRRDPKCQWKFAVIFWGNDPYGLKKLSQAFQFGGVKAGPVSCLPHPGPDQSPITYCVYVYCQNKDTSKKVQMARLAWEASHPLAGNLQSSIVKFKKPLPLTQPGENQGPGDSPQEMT", "experiment": "EMSA; lacks leucine zipper; anti-LANA supershift", "conditions": "tags: GST; label: radiolabel"}, "[2]": {"target": "T1, LANA 1-950 (Kaposi's sarcoma-associated herpesvirus)", "T1 chain": "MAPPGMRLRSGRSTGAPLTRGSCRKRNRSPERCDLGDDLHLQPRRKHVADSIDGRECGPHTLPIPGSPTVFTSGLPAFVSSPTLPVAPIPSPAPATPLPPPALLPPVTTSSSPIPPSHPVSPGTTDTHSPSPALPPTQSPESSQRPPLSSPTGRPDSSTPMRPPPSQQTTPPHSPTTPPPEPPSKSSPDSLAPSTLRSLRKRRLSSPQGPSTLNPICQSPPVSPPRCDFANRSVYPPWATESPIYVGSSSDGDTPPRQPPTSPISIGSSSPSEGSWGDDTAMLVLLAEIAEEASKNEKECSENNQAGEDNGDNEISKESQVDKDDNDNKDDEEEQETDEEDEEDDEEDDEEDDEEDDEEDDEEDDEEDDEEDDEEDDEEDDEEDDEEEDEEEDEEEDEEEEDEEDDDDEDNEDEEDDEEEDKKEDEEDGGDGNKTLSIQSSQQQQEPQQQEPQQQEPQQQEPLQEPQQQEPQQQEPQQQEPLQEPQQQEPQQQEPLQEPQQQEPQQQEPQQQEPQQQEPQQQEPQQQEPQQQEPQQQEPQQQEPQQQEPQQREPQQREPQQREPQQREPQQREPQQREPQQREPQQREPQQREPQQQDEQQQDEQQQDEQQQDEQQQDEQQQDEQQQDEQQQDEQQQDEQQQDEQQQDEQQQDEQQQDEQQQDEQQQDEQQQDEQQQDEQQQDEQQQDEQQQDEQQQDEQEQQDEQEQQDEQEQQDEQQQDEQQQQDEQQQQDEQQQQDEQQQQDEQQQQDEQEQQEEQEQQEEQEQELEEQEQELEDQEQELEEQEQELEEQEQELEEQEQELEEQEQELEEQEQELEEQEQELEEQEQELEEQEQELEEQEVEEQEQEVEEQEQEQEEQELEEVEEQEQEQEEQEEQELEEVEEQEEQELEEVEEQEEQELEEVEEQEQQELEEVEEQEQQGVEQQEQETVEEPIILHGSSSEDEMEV", "experiment": "EMSA", "conditions": "label: radiolabel"}}}
{"binder": "B1", "values": [{"measurement": "binding result", "setting": "[1]", "result": "binds"}, {"measurement": "binding result", "setting": "[2]", "result": "no binding"}]}
